# According to article PMC5512577 (Nature Communications, 2016):
# Ends that are not written are not given here. * marks the point of attachment. FITC = O=C1OC2(c3ccc(O)cc3Oc3cc(O)ccc32)c2ccc(NC(=S)*)cc21; Farnesyl = CC(C)=CCC/C(C)=C/CC/C(C)=C/C*; Far = not defined here
# B1: TAMRA-labelled farnesylated and carboxy-methylated C-terminal peptide of INPP5E (residues 637-644) (peptide)
# peptide: SQNSSTIC(Farnesyl)-OMe
# modifications: also: TAMRA label, position not given here
# notes: C-terminal peptide of inositol polyphosphate 5'-phosphatase E (INPP5E), printed as residues 637-644 with the farnesylated Cys644; also called INPP5E peptide; TAMRA-labelled INPP5E peptide; source: synthetic peptide, bought: JPT
# B2: phosphodiesterase 6 delta subunit (PDE6δ), N-terminal histidine-tagged (natural protein)
# chain: MSAKDERAREILRGFKLNWMNLRDAETGKILWQGTEDLSVPGVEHEARVPKKILKCKAVSRELNFSSTEQMEKFRLEQKVYFKGQCLEEWFFEFGFVIPNSTNTWQSLIEAAPESQMMPASVLTGNVIIETKFFDDDLLVSTSRVRLFYV
# notes: PDE6δ, the delta subunit of phosphodiesterase 6; the PDE6δ of PDB 3T5G was the search model for the structure solved here (5F2U); also called PrBP/PDE6δ; source: E. coli BL21-CodonPlus(DE3)-RIL, purified (Ni-NTA, gel filtration)
# B3: full-length Arl2, C-terminal histidine-tagged, bound to GppNHp or mantGppNHp (natural protein, UniProt Q9D0J4 1-184, looked up)
# chain: MGLLTILKKMKQKERELRLLMLGLDNAGKTTILKKFNGEDVDTISPTLGFNIKTLEHRGFKLNIWDVGGQKSLRSYWRNYFESTDGLIWVVDSADRQRMQDCQRELQSLLVEERLAGATLLIFANKQDLPGALSCNAIQEALELDSIRSHHWRIQGCSAVTGEDLLPGIDWLLDDISSRVFTAD
# notes: Loaded with GppNHp (release assays) or mantGppNHp (kinetics with PDE6δ); Species surmised as mouse from earlier work of the same laboratory; the human protein is P36404; also called Arl2^fl; Arl2·GppNHp; source: E. coli BL21-CodonPlus(DE3)-RIL, purified (Ni-NTA, gel filtration)
# B4: FITC-labelled farnesylated and carboxy-methylated C-terminal peptide of Rheb (residues 175-181) (peptide)
# peptide: {FITC}-SQGKSSC(Far)-OMe
# modifications: reading uncertain
# notes: also called Rheb peptide; Fluorescein-SQGKSSC(Far)-OMe; source: synthetic peptide, bought: JPT
# B5: Rheb(SI) peptide (K178S/S180I), farnesylated and carboxy-methylated (peptide)
# peptide: SQGSSIC(Far)-OMe
# modifications: reading uncertain
# notes: C-terminal peptide of Rheb with the -1 and -3 residues swapped to those of INPP5E; Unlabelled; also called SQGSSIC(Far)-OMe; source: synthetic peptide, bought: CambridgePeptides
# Tests used:
# Conditions in all cases: both partners purified
# [1] = molecular target: B2; experiment: fluorescence polarisation; 0.01 μM TAMRA-labelled INPP5E peptide or 0.5 μM FITC-labelled Rheb peptide titrated with increasing PDE6δ; 20 °C; 25 mM Tris-HCl pH 7.5, 50 mM NaCl, 3 mM DTE; quadratic fit
# [2] = molecular target: B1; experiment: fluorescence polarisation; stopped flow; complex of 1 μM PDE6δ with 0.2 μM labelled peptide mixed with 100-fold excess of unlabelled peptide and 10 μM Arl3·GppNHp; 20 °C
# [3] = molecular target: T1, full-length Arl3, C-terminal histidine-tagged, bound to GppNHp or mantGppNHp (UniProt Q9WUL7 1-182); experiment: fluorescence polarisation; stopped flow; kon: 0.2 μM mantGppNHp-loaded Arl protein with increasing PDE6δ; koff: 2 μM PDE6δ with 0.2 μM mantGppNHp-loaded Arl protein mixed with 200-fold excess of unlabelled Arl protein; Kd=koff/kon; 20 °C
# T1 construct: Loaded with the non-hydrolysable GTP analogue GppNHp (release assays) or mantGppNHp (kinetics with PDE6δ); Species surmised as mouse from earlier work of the same laboratory; the human protein is P36405; also called Arl3^fl; Arl3·GppNHp; source: E. coli BL21-CodonPlus(DE3)-RIL, purified (Ni-NTA, gel filtration)
# [4] = molecular target: T2, N-terminally truncated Arl3 (aa 18-177), bound to GppNHp or mantGppNHp (UniProt Q9WUL7 18-177); experiment: as above
# T2 construct: Arl3 residues 18-177, without the N-terminal helix; Species surmised as mouse from earlier work of the same laboratory; also called Arl3^ΔN; source: E. coli BL21-CodonPlus(DE3)-RIL, purified (GSH column, tag cleaved, gel filtration); not shown: GST, N-terminal, cleaved
# [5] = molecular target: B3; experiment: as above
# [6] = molecular target: T3, N-terminally truncated Arl2 (aa 17-178), bound to mantGppNHp (UniProt Q9D0J4 17-178); experiment: as above
# T3 construct: Arl2 residues 17-178; Species surmised as mouse from earlier work of the same laboratory; also called Arl2^ΔN; source: E. coli BL21-CodonPlus(DE3)-RIL, purified (GSH column, tag cleaved, gel filtration); not shown: GST, N-terminal, cleaved
# [7] = molecular target: B2; experiment: as above
# [8] = molecular target: B2; experiment: fluorescence polarisation; stopped flow; complex of 1 μM PDE6δ with 0.2 μM labelled peptide mixed with 100-fold excess of unlabelled peptide, no Arl protein; 20 °C
# [9] = molecular target: B2; experiment: fluorescence polarisation; competition: complex of 0.5 μM FITC-labelled Rheb peptide and 1 μM PDE6δ titrated with unlabelled mutant peptide; fitted with a competition model; 20 °C
binder,measurement,setting,value
B1,Kd,[1],3.7 nM
B2,fold acceleration of koff by Arl3·GppNHp against no Arl,[2],~10000 fold
same,Kd,[3],5.8 nM
same,Kd,[4],217 nM
same,Kd,[5],149 nM
same,Kd,[6],316 nM
B3,fold difference in koff against Arl2^ΔN,[7],3 fold
B4,koff,[8],0.95 s⁻¹
same,Kd,[1],445 nM
B5,Kd,[9],12 nM
